Data taken from patent US20220332776A1, “ANTIBODY […] INDUCED DIMERIZERS (AbCID) AS MOLECULAR […] AND USES THEREOF” (The Regents of the University of California, priority 2019, published 2022).

T1: pomalidomide-bound cereblon IMiD-binding domain (Pongo abelii (Sumatran orangutan) …, UniProt Q5R6Y2 306-414, biotinylated on its AviTag)
T1 construct: not shown: TEV cut site, AviTag and HIS6 tag fused to the domain
T1 sequence: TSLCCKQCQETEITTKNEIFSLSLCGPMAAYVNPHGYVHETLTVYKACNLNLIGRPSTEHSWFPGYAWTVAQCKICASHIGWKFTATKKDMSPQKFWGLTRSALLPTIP

B1: Fab-PC1 (Fab)
heavy: EISEVQLVESGGGLVQPGGSLRLSCAASGFNVSSYSIHWVRQAPGKGLEWVASISSYSGSTSYADSVKGRFTISADTSKNTAYLQMNSLRAEDTAVYYCARSYFVEYYYYYGWPWGLDYWGQGTLVTVSSASTKGPSVFPLAPSSKSTSGGTAALGCLVKDYFPEPVTVSWNSGALTSGVHTFPAVLQSSGLYSLSSVVTVPSSSLGTQTYICNVNHKPSNTKVDKKVEPKSCDKTHTGGSHHHHHH
light: SDIQMTQSPSSLSASVGDRVTITCRASQSVSSAVAWYQQKPGKAPKLLIYSASSLYSGVPSRFSGSRSGTDFTLTISSLQPEDFATYYCQQSSYSYLFTFGQGTKVEIKRTVAAPSVFIFPPSDSQLKSGTASVVCLLNNFYPREAKVQWKVDNALQSGNSQESVTEQDSKDSTYSLSSTLTLSKADYEKHKVYACEVTHQGLSSPVTKSFNRGECGGSDYKDDDDK
notes: chains assembled here by putting the CDRs in place of the scaffold's own CDR stretches; also called Fab-phage clone PC1
B2: Fab-TC2: Fab-phage clone from thalidomide-cereblon IMiD-binding domain selection; CDRs SEQ ID NO: 2, 7, 12, 21, 22, 17 (antibody)
heavy: EISEVQLVESGGGLVQPGGSLRLSCAASGFNVSSSSIHWVRQAPGKGLEWVASIYSYYGSTYYADSVKGRFTISADTSKNTAYLQMNSLRAEDTAVYYCARTDSWYYYRYGGMDYWGQGTLVTVSSASTKGPSVFPLAPSSKSTSGGTAALGCLVKDYFPEPVTVSWNSGALTSGVHTFPAVLQSSGLYSLSSVVTVPSSSLGTQTYICNVNHKPSNTKVDKKVEPKSCDKTHTGGSHHHHHH
light: SDIQMTQSPSSLSASVGDRVTITCRASQSVSSAVAWYQQKPGKAPKLLIYSASSLYSGVPSRFSGSRSGTDFTLTISSLQPEDFATYYCQQYSWWWMPITFGQGTKVEIKRTVAAPSVFIFPPSDSQLKSGTASVVCLLNNFYPREAKVQWKVDNALQSGNSQESVTEQDSKDSTYSLSSTLTLSKADYEKHKVYACEVTHQGLSSPVTKSFNRGECGGSDYKDDDDK
B3: Fab-PC1: Fab-phage clone from pomalidomide-cereblon IMiD-binding domain selection; CDRs SEQ ID NO: 4, 9, 14, 21, 22, 19 (antibody)
heavy: EISEVQLVESGGGLVQPGGSLRLSCAASGFNVSSYSIHWVRQAPGKGLEWVASISSYSGSTSYADSVKGRFTISADTSKNTAYLQMNSLRAEDTAVYYCARSYFVEYYYYYGWPWGLDYWGQGTLVTVSSASTKGPSVFPLAPSSKSTSGGTAALGCLVKDYFPEPVTVSWNSGALTSGVHTFPAVLQSSGLYSLSSVVTVPSSSLGTQTYICNVNHKPSNTKVDKKVEPKSCDKTHTGGSHHHHHH
light: SDIQMTQSPSSLSASVGDRVTITCRASQSVSSAVAWYQQKPGKAPKLLIYSASSLYSGVPSRFSGSRSGTDFTLTISSLQPEDFATYYCQQSSYSYLFTFGQGTKVEIKRTVAAPSVFIFPPSDSQLKSGTASVVCLLNNFYPREAKVQWKVDNALQSGNSQESVTEQDSKDSTYSLSSTLTLSKADYEKHKVYACEVTHQGLSSPVTKSFNRGECGGSDYKDDDDK

What was measured:
[1] = tested on: scFab-TC1-eGFP fusion protein; assay: IMiD-induced degradation of scFab-TC1-eGFP in HEK 293T cells, flow cytometry for GFP fluorescence; assay type: cell-based; details: HEK 293T cells transfected with scFab-TC1-eGFP; 1000 nM, 100 nM or 10 nM for 20 hours; GFP fluorescence intensity
Procedure: Fab TC1 was converted into a previously described single-chain Fab construct using Gibson cloning (Hornsby, et al., Mol. Cell. Proteomics, 14:2833-2847 (2015)) and subsequently fused to eGFP by Gibson cloning into a pcDNA3.1 vector to produce an expression vector encoding an scTC1-eGFP fusion protein.
K562 and HEK293T cells utilized were from frozen stocks maintained by the Wells lab. The cell lines were not authenticated before use. No test for mycoplasma contamination was performed. Cells expressing scTC1-eGFP were transfected with FugeneHD transfection reagent purchased from Promega using the manufacturer's protocol. Unless otherwise noted all Jurkat and K562 cells lines were cultured in RPMI supplemented with 10% FBS and 1× Pen/Strep. CD19^+ K562 cells were maintained in puromycin (2 μg/mL). HEK293T cells containing the Gal4-UAS-Fluc operon were maintained in High Glucose DMEM supplemented with 10% FBS, 1× Pen/Strep, and puromycin (2 μg/mL). All cell lines were cultured at 37° C. under 5% CO2.
HEK 293T cells (ATCC® CRL-3216™) were transfected to express scFab-TC1-eGFP. Transfected cells were treated with thalidomide, lenalidomide, or pomalidomide at 1000 nM, 100 nM, or 10 nM for 20 hours, after which GFP fluorescence intensity was measured by flow cytometry. Treatment with DMSO was included as a negative control.

[2] = biological target: T1, pomalidomide-bound cereblon …; assay: Fab-phage competition ELISA (OD450): binding to immobilized IMiD-bound cereblon IMiD-binding domain with 20 nM soluble competitor divided by binding without competitor
[3] = biological target: T2, cereblon IMiD-binding domain (SEQ ID NO: 25) (Homo sapiens, UniProt Q96SW2); assay: Fab ELISA with cereblon IMiD-binding domain in the presence or absence of IMiD; details: thalidomide, lenalidomide or pomalidomide, FIG. 2G
T2 construct: TEV cut site; HIS6 tag; made in house; host or cells: E. coli BL21(DE3)
Procedure: ELISAs were performed according to standard protocols. […] 20 nM of biotinylated cereblon was captured on the NeutrAvidin-coated wells for 30 minutes followed by the addition of various concentrations of Fab with either 5 μM thalidomide, lenalidomide, or pomalidomide or 0.05% DMSO for 30 minutes. The bound Fabs were then detected using a horseradish peroxidase (HRP)-conjugated anti-Fab monoclonal antibody (Jackson ImmunoResearch 109-036-097).
(§1) The unique Fabs from Example 1 were sub-cloned into a bacterial expression vector, expressed, and purified (Hornsby, et al., Mol. Cell. Proteomics, 14:2833-2847 (2015)). […] To further profile the Fabs, we characterized the kinetics of cereblon IMiD-binding domain binding for Fab-TC2 and Fab-PC1 in the presence or absence of their respective IMiD by biolayer interferometry (FIGS. 3A and 3B) (Shah, et al., J. Vis. Exp., e51383 (2014)).

[4] = biological target: T3, cereblon IMiD-binding domain (Homo sapiens, UniProt Q96SW2); assay: Biolayer interferometry binding kinetics of Fabs to cereblon IMiD-binding domain; details: for binding to the cereblon IMiD-binding domain alone: absence of IMiD
T3 construct: TEV cut site; HIS6 tag; made in house; host or cells: E. coli BL21(DE3)
Procedure: Biolayer interferometery data were measured using an Octet RED384 instrument (ForteBio). Biotinylated cereblon was immobilized on a Streptavidin (SA) biosensor using a 200 nM solution. Serial dilutions of Fabs in kinetics buffer (PBS, pH 7.4, 0.05% Tween-20, 0.2% BSA, 10 μM biotin) with IMiD (1 μM) or vehicle (0.05% DMSO) were used as analyte. Affinity (KD) and kinetic parameters (kon and koff) were calculated from a global fit (1:1) of the data using the Octet RED384 software.
as §1

[5] = in the presence of lenalidomide
[6] = in the presence of pomalidomide

Molecule	GFP expression compared to the DMSO control [1]	binding to the cereblon IMiD-binding domain alone [4]	binding to the cereblon IMiD-binding domain [4, 5]	binding to the cereblon IMiD-binding domain [4, 6]	binding to the cereblon IMiD-binding domain ([4]; in the presence of thalidomide)	further results
Nc1cccc2c1CN(C1CCC(=O)NC1=O)C2=O (stereo not drawn) [lenalidomide]	reduced GFP expression					
Nc1cccc2c1C(=O)N(C1CCC(=O)NC1=O)C2=O (stereo not drawn) [pomalidomide]	reduced GFP expression					
O=C1CCC(N2C(=O)c3ccccc3C2=O)C(=O)N1 (stereo not drawn) [thalidomide]	reduced GFP expression					
B1						competition selectivity ratio [2]: < 0.5
B2		no significant binding	potent and reversible binding	potent and reversible binding	potent and reversible binding	binding to the cereblon IMiD-binding domain bound to a different IMiD than the one used for selection [3]: all except one of the Fabs (Fab-phage clone TC2) was able to bind; binding compared to binding in the presence of thalidomide [4, 5]: less potent binding; binding compared to binding in the presence of thalidomide [4, 6]: less potent binding
B3		no significant binding	potent and reversible binding	potent and reversible binding	potent and reversible binding	
